1 protein from publication PMC7134607 (Biochemical and Biophysical Research Communications, 2004) can be followed below.

This data set concerns the molecule itself. The data set is described as follows: enzyme activity versus enzyme concentration.

B1: SARS main protease (enzyme)
chain: SGFRKMAFPSGKVEGCMVQVTCGTTTLNGLWLDDTVYCPRHVICTAEDMLNPNYEDLLIRKSNHSFLVQAGNVQLRVIGHSMQNCLLRLKVDTSNPKTPKYKFVRIQPGQTFSVLACYNGSPSGVYQCAMRPNHTIKGSFLNGSCGSVGFNIDYDCVSFCYMHHMELPTGVHAGTDLEGKFYGPFVDRQTAQAAGTDTTITLNVLAWLYAAVINGDRWFLNRFTTTLNDFNLVAMKYNYEPLTQDHVDILGPLSAQTGIAVLDMCAALKELLQNGMNGRTILGSTILEDEFTPFDVVRQCSGVTFQ
Regarding B1, the Kd (in general, the equilibrium constant for the complex coming apart) was 15 ± 4 nM.
